Where no end group is shown, it is not given here. [ ]: non-standard residue; d: D form. pGlu = O=C1CC[C@@H](C(=O)O)N1

In test [1] the target is T1, pyroglutamated human Aβ3-11 with the addition of a C-terminal cysteine residue, pE-FRHDSGYE-C (human, not fully specified).
T1 construct: The range 3-11 counts on Aβ, not on APP; also called human AβpE3; human AβpE3-11-C
T1 peptide: [pGlu]FRHDSGYEC
Description: SPR (BIAcore 3000), peptide immobilised on CM5 chip. As to the method:
(§1) Affinity measurements using SPR technology: Binding affinity of anti-Aβ antibodies was determined using BIAcore 3000 (Biacore, Upsula, Sweden). Human and murine pyroglutaminyl and unmodified Aβ peptides with a C-terminal Cystein were immobilized on a CM5 chip using the 2-(2-pyridinyldithio) ethaneamine hydrochloride (PDEA) coupling technology (GE healthcare).
In general terms: SPR reads the build-up and loss of mass on a sensor chip optically.

The target of test [2] is T2, pyroglutamated murine Aβ3-11 with the addition of a C-terminal cysteine residue, pE-FGHDSGFE-C (murine, not fully specified).
T2 construct: The range 3-11 counts on Aβ, not on APP; also called murine AβpE3; murine AβpE3-11-C
T2 peptide: [pGlu]FGHDSGFEC
The test is described as above. As to the method:
as §1

B1: monoclonal antibody 2E4 (antibody, V domains shown)
VH: EVKLEESGGGLVQPGGSMKLSCTASGITLNDAWMTWVRQSPEKGLEWVGEIRNKANNHATNYAESVKGRFSISRDDSKGIVYLQMNSLRAEDTGNYYCTRHSYWGPGTLVTVSA
VL: DILMTQSPSSMSVSLGDTVSITCHASQGIRNNIGWLQEKPGKSFKGLIYHGTKLEDGIPSRFSGSGSGADYSLTISSLESEDVADYYCVQYDQFPYTFGGGTKLEIK
notes: Mouse hybridoma monoclonal antibody directed against murine AβpE3
As to B1, in test [1], the binding result is reported as “no binding”.

B2: monoclonal antibody 1G11 (antibody, V domains shown)
VH: EVKLEESGGGLVQPGGSMKLSCTASGLTLSDAWMNWVRQSPEKGLEWVAEIRSKAYKHATYYAESVKGRFTISRDDSKSCIYLQMNTLRAEDTGIYYCTRHGSWGPGTLVTVSA
VL: DILMSQSPSSMSVSLGDRVSITCRASQGISSKMGWLQQKPGKSSKGLIYHGTKLEDGVPSRFSGSGSGAEYSLTISSLESEDFGDYYCVQYAQFPYTFGGGTKLEIK
notes: as for B1
Take B2: the binding result in test [1] is on record as “no binding”.

B3: monoclonal antibody 5C9 (antibody, V domains shown)
VH: QIQLQQSGPELVKPGAAVKISCKASGYTFTDYYLNWVKQKPGQGLEWIGWIYPGSGNVKYNEKFKGKATLTADTSSNTAHMQLSSLTSEDTAVYFCTREGLIVYWGQGTLVTVSA
VL: DVVLTQTPFTLSVTIGQPASISCKSSQSLLHSNGESYLNWLFQRPGQSPKRLIYAVSKLDSGVPDRFTGSGSGTDFTLKISRVEAEDLGVYYCVQGTHFPFTFGGGTKLEIK
notes: also called LuAb1h
In the case of B3, in test [2], the binding result was “no binding”.

The values above are taken from patent US20170022268A1 (H LUNDBECK A S, published 2017).
